Laboratory results from patent US20050143285A1.
“And” between values parts separate entries of the source, which are not always exact repeats. Identical values can stand only once. Like-named read-outs stand apart in the source and are kept apart here.

Experiments:
[1] = molecular target: T1, Lymnaea stagnalis acetylcholine binding protein (AChBP) (Lymnaea stagnalis), P58154; assay: stopped-flow, intrinsic tryptophan fluorescence quenching of Lymnaea AChBP
[2] = molecular target: T1, Lymnaea stagnalis acetylcholine binding …; assay: stopped-flow fluorescence; Kd calculated from k-1/k1
[3] = molecular target: T2, Aplysia californica acetylcholine binding protein (AChBP) (Aplysia californica)
T2 chain: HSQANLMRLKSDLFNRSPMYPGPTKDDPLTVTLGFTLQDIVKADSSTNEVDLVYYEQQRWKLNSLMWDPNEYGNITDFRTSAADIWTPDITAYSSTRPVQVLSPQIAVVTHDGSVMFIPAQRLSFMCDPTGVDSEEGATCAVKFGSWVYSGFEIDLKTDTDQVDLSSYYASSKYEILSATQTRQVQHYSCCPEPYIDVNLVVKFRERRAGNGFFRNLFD

[4] = molecular target: T1, Lymnaea stagnalis acetylcholine binding …
[5] = molecular target: T1, Lymnaea stagnalis acetylcholine binding …; remark: listed apart in the source
[6] = molecular target: T1, Lymnaea stagnalis acetylcholine binding …; assay: ratio of Kd on Lymnaea AChBP to Kd on Aplysia AChBP
[7] = molecular target: T1, Lymnaea stagnalis acetylcholine binding …; assay: equilibrium titration, intrinsic tryptophan fluorescence of Lymnaea AChBP
[8] = molecular target: T1, Lymnaea stagnalis acetylcholine binding …; assay: stopped-flow spectrofluorimetry, excitation 280 nm, emission above 305 nm
[9] = molecular target: T1, Lymnaea stagnalis acetylcholine binding …; remark: listed apart in the source

T1 sequence (P58154 20-229): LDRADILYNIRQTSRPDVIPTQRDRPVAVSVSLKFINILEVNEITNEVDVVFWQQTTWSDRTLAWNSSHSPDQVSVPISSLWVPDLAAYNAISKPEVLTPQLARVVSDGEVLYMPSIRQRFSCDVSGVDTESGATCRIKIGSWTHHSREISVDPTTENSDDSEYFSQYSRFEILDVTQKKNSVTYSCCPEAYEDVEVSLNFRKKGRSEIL

GGKPDLRPCHPPCHYIPRPKPR (modifications not checked) [Waglerin-1, P24335 3-24] was tested, and the koff [1] was 31 s⁻¹, the kon [1] was 4.8e+06 M⁻¹ s⁻¹ and the Kd [2] was 6500 nM.

B1: α-Cobratoxin, P01391 1-71 (peptide)
chain: IRCFITPDITSKDCPNGHVCYTKTWCDAFCSIRGKRVDLGCAATCPTVKTGVDIQCCSTDNCNPFPTRKRP
modifications: not checked
With B1 the koff [1] was 0.011 s⁻¹, the kon [1] was 3.3e+06 M⁻¹ s⁻¹ and the Kd [2] was 3.2 nM.

B2: α-bungarotoxin, P60615 22-95 (peptide)
chain: IVCHTTATSPISAVTCPPGENLCYRKMWCDAFCSSRGKVVELGCAATCPSKKPYEEVTCCSTDKCNPHPKQRPG
modifications: not checked
B2 showed a koff [1] of 0.0017 s⁻¹, a kon [1] of 970000 M⁻¹ s⁻¹ and a fold lower affinity than for L-AChBP [3] of 100 fold. The Kd [4] was 1.8 nM, the koff [5] was 0.001 s⁻¹ and the Kd Ratio L/A [6] was 0.0071. The percent quenching of the unliganded receptor fluorescence [7] was 15% and 20%, the kon [8] was 900000 M⁻¹ s⁻¹ and the Kd [2] was 1.8 nM. It also gave a fold slower rate of association than epibatidine [9] of 200 fold and a k2 (unimolecular step of association) [9] of 0.34 s⁻¹.
